The record followed here is patent publication US20230406950A1 (LYVGEN BIOPHARMA, published 2023).

One may read the EC50 (read off the curve) as the concentration needed to bring the measured effect to its halfway point. Low readings indicate higher potency in that assay, high ones lower potency in that assay.

To fix the notation:
B1: Ly768 (bispecific antibody, human IgG1, kappa)
heavy: EVQLVQSGAEVKKPGASVKVSCKASGYTFTDSYMSWVRQAPGQGLEWIGDMYPDNGDSSYNQKFRERVTITRDTSTSTAYLELSSLRSEDTAVYYCVLAPRWYFSVWGQGTLVTVSSASTKGPSVFPLAPSSKSTSGGTAALGCLVKDYFPEPVTVSWNSGALTSGVHTFPAVLQSSGLYSLSSVVTVPSSSLGTQTYICNVNHKPSNTKVDKKVEPKSCDKTHTCPPCPAPELLGPSVFLFPPKPKDTLMISRTPEVTCVVVDVSHEDPEVKFNWYVDGVEVHNAKTKPREEQYNSTYRVVSVLTVLHQDWLNGKEYKCKVSNKALPAPIEKTISKAKGQPREPQVYTLPPSREEMTKNQVSLTCLVKGFYPSDIAVEWESNGQPENNYKTTPPVLDSDGSFFLYSKLTVDKSRWQQGNVFSCSVMHEALHNHYTQKSLSLSPGK
light: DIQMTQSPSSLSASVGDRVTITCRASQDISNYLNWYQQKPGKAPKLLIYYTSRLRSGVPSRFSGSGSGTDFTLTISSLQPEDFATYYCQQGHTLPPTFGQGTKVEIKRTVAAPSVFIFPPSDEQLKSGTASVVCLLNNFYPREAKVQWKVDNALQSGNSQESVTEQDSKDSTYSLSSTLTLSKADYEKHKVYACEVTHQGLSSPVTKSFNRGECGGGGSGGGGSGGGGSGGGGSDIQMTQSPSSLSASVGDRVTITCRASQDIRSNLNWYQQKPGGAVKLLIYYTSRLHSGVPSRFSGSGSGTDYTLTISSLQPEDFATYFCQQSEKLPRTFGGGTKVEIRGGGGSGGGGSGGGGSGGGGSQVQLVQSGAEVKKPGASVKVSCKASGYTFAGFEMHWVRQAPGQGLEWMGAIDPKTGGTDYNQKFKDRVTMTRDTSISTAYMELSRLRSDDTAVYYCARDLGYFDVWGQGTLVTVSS
notes: Anti-OX40/CD137: Ly598-derived heavy chain
B2: Ly766 (bispecific antibody, human IgG1, kappa)
heavy: EVQLVQSGAEVKKPGASVKVSCKASGYTFTDSYMSWVRQAPGQGLEWIGDMYPDNGDSSYNQKFRERVTITRDTSTSTAYLELSSLRSEDTAVYYCVLAPRWYFSVWGQGTLVTVSSASTKGPSVFPLAPSSKSTSGGTAALGCLVKDYFPEPVTVSWNSGALTSGVHTFPAVLQSSGLYSLSSVVTVPSSSLGTQTYICNVNHKPSNTKVDKKVEPKSCDKTHTCPPCPAPELLGPSVFLFPPKPKDTLMISRTPEVTCVVVDVSHEDPEVKFNWYVDGVEVHNAKTKPREEQYNSTYRVVSVLTVLHQDWLNGKEYKCKVSNKALPAPIEKTISKAKGQPREPQVYTLPPSREEMTKNQVSLTCLVKGFYPSDIAVEWESNGQPENNYKTTPPVLDSDGSFFLYSKLTVDKSRWQQGNVFSCSVMHEALHNHYTQKSLSLSPGGGGGSGGGGSGGGGSGGGGSDIQMTQSPSSLSASVGDRVTITCRASQDIRSNLNWYQQKPGGAVKLLIYYTSRLHSGVPSRFSGSGSGTDYTLTISSLQPEDFATYFCQQSEKLPRTFGGGTKVEIRGGGGSGGGGSGGGGSGGGGSQVQLVQSGAEVKKPGASVKVSCKASGYTFAGFEMHWVRQAPGQGLEWMGAIDPKTGGTDYNQKFKDRVTMTRDTSISTAYMELSRLRSDDTAVYYCARDLGYFDVWGQGTLVTVSS
light: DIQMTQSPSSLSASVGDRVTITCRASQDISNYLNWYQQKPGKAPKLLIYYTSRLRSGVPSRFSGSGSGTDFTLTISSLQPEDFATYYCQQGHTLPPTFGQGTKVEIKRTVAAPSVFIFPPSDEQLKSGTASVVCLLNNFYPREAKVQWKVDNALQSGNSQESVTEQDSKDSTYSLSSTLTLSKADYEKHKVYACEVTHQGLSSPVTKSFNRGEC
notes: Anti-OX40/CD137: Ly598-derived heavy chain fused to Ly1630 scFv (VL-VH); Ly598 light chain
B3: Ly767 (bispecific antibody, human IgG1, kappa)
heavy: EVQLVQSGAEVKKPGASVKVSCKASGYTFTDSYMSWVRQAPGQGLEWIGDMYPDNGDSSYNQKFRERVTITRDTSTSTAYLELSSLRSEDTAVYYCVLAPRWYFSVWGQGTLVTVSSASTKGPSVFPLAPSSKSTSGGTAALGCLVKDYFPEPVTVSWNSGALTSGVHTFPAVLQSSGLYSLSSVVTVPSSSLGTQTYICNVNHKPSNTKVDKKVEPKSCDKTHTCPPCPAPELLGPSVFLFPPKPKDTLMISRTPEVTCVVVDVSHEDPEVKFNWYVDGVEVHNAKTKPREEQYNSTYRVVSVLTVLHQDWLNGKEYKCKVSNKALPAPIEKTISKAKGQPREPQVYTLPPSREEMTKNQVSLTCLVKGFYPSDIAVEWESNGQPENNYKTTPPVLDSDGSFFLYSKLTVDKSRWQQGNVFSCSVMHEALHNHYTQKSLSLSPGGGGGSGGGGSGGGGSGGGGSQVQLVQSGAEVKKPGASVKVSCKASGYTFAGFEMHWVRQAPGQGLEWMGAIDPKTGGTDYNQKFKDRVTMTRDTSISTAYMELSRLRSDDTAVYYCARDLGYFDVWGQGTLVTVSSGGGGSGGGGSGGGGSGGGGSDIQMTQSPSSLSASVGDRVTITCRASQDIRSNLNWYQQKPGGAVKLLIYYTSRLHSGVPSRFSGSGSGTDYTLTISSLQPEDFATYFCQQSEKLPRTFGGGTKVEIR
light: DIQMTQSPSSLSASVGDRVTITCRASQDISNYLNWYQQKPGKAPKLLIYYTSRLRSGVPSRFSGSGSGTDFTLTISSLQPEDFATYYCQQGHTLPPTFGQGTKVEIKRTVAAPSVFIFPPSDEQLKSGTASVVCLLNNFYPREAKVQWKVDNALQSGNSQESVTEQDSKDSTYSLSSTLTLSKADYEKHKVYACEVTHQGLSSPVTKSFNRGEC
notes: Anti-OX40/CD137: Ly598-derived heavy chain fused to Ly1630 scFv (VH-VL); Ly598 light chain
B4: Ly764 (bispecific antibody, human IgG1, kappa)
heavy: QVQLVQSGAEVKKPGASVKVSCKASGYTFAGFEMHWVRQAPGQGLEWMGAIDPKTGGTDYNQKFKDRVTMTRDTSISTAYMELSRLRSDDTAVYYCARDLGYFDVWGQGTLVTVSSASTKGPSVFPLAPSSKSTSGGTAALGCLVKDYFPEPVTVSWNSGALTSGVHTFPAVLQSSGLYSLSSVVTVPSSSLGTQTYICNVNHKPSNTKVDKKVEPKSCDKTHTCPPCPAPELLGPSVFLFPPKPKDTLMISRTPEVTCVVVDVSHEDPEVKFNWYVDGVEVHNAKTKPREEQYNSTYRVVSVLTVLHQDWLNGKEYKCKVSNKALPAPIEKTISKAKGQPREPQVYTLPPSREEMTKNQVSLTCLVKGFYPSDIAVEWESNGQPENNYKTTPPVLDSDGSFFLYSKLTVDKSRWQQGNVFSCSVMHEALHNHYTQKSLSLSPGK
light: DIQMTQSPSSLSASVGDRVTITCRASQDIRSNLNWYQQKPGGAVKLLIYYTSRLHSGVPSRFSGSGSGTDYTLTISSLQPEDFATYFCQQSEKLPRTFGGGTKVEIRRTVAAPSVFIFPPSDEQLKSGTASVVCLLNNFYPREAKVQWKVDNALQSGNSQESVTEQDSKDSTYSLSSTLTLSKADYEKHKVYACEVTHQGLSSPVTKSFNRGECGGGGSGGGGSGGGGSGGGGSDIQMTQSPSSLSASVGDRVTITCRASQDISNYLNWYQQKPGKAPKLLIYYTSRLRSGVPSRFSGSGSGTDFTLTISSLQPEDFATYYCQQGHTLPPTFGQGTKVEIKGGGGSGGGGSGGGGSGGGGSEVQLVQSGAEVKKPGASVKVSCKASGYTFTDSYMSWVRQAPGQGLEWIGDMYPDNGDSSYNQKFRERVTITRDTSTSTAYLELSSLRSEDTAVYYCVLAPRWYFSVWGQGTLVTVSS
notes: Anti-OX40/CD137: Ly1630 heavy chain
B5: Ly765 (bispecific antibody, human IgG1, kappa)
heavy: B4 heavy
light: DIQMTQSPSSLSASVGDRVTITCRASQDIRSNLNWYQQKPGGAVKLLIYYTSRLHSGVPSRFSGSGSGTDYTLTISSLQPEDFATYFCQQSEKLPRTFGGGTKVEIRRTVAAPSVFIFPPSDEQLKSGTASVVCLLNNFYPREAKVQWKVDNALQSGNSQESVTEQDSKDSTYSLSSTLTLSKADYEKHKVYACEVTHQGLSSPVTKSFNRGECGGGGSGGGGSGGGGSGGGGSEVQLVQSGAEVKKPGASVKVSCKASGYTFTDSYMSWVRQAPGQGLEWIGDMYPDNGDSSYNQKFRERVTITRDTSTSTAYLELSSLRSEDTAVYYCVLAPRWYFSVWGQGTLVTVSSGGGGSGGGGSGGGGSGGGGSDIQMTQSPSSLSASVGDRVTITCRASQDISNYLNWYQQKPGKAPKLLIYYTSRLRSGVPSRFSGSGSGTDFTLTISSLQPEDFATYYCQQGHTLPPTFGQGTKVEIK
notes: as for B4
B6: Ly763 (bispecific antibody, human IgG1, kappa)
heavy: QVQLVQSGAEVKKPGASVKVSCKASGYTFAGFEMHWVRQAPGQGLEWMGAIDPKTGGTDYNQKFKDRVTMTRDTSISTAYMELSRLRSDDTAVYYCARDLGYFDVWGQGTLVTVSSASTKGPSVFPLAPSSKSTSGGTAALGCLVKDYFPEPVTVSWNSGALTSGVHTFPAVLQSSGLYSLSSVVTVPSSSLGTQTYICNVNHKPSNTKVDKKVEPKSCDKTHTCPPCPAPELLGPSVFLFPPKPKDTLMISRTPEVTCVVVDVSHEDPEVKFNWYVDGVEVHNAKTKPREEQYNSTYRVVSVLTVLHQDWLNGKEYKCKVSNKALPAPIEKTISKAKGQPREPQVYTLPPSREEMTKNQVSLTCLVKGFYPSDIAVEWESNGQPENNYKTTPPVLDSDGSFFLYSKLTVDKSRWQQGNVFSCSVMHEALHNHYTQKSLSLSPGGGGGSGGGGSGGGGSGGGGSEVQLVQSGAEVKKPGASVKVSCKASGYTFTDSYMSWVRQAPGQGLEWIGDMYPDNGDSSYNQKFRERVTITRDTSTSTAYLELSSLRSEDTAVYYCVLAPRWYFSVWGQGTLVTVSSGGGGSGGGGSGGGGSGGGGSDIQMTQSPSSLSASVGDRVTITCRASQDISNYLNWYQQKPGKAPKLLIYYTSRLRSGVPSRFSGSGSGTDFTLTISSLQPEDFATYYCQQGHTLPPTFGQGTKVEIK
light: DIQMTQSPSSLSASVGDRVTITCRASQDIRSNLNWYQQKPGGAVKLLIYYTSRLHSGVPSRFSGSGSGTDYTLTISSLQPEDFATYFCQQSEKLPRTFGGGTKVEIRRTVAAPSVFIFPPSDEQLKSGTASVVCLLNNFYPREAKVQWKVDNALQSGNSQESVTEQDSKDSTYSLSSTLTLSKADYEKHKVYACEVTHQGLSSPVTKSFNRGEC
notes: Ly1630 light chain

The target of the first assay is T1, human CD137 expressed on cells (human, UniProt Q07011 24-255).
T1 construct: whole, on cells; also called 4-1BB; TNFRSF9
T1 sequence (Q07011 24-255): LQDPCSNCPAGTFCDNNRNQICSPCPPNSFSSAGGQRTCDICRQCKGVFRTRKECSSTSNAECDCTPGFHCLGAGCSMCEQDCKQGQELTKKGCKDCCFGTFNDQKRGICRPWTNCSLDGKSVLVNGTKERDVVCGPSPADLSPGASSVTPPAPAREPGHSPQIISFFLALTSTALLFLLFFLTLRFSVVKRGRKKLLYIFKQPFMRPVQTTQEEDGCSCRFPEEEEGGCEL
The assay is described as follows: FACS on CHO cells expressing human CD137 (MFI). As to the method:
(§1) Anti-OX40/CD137 bi-specific antibodies were analyzed by FACS for their binding properties to human OX40 and/or human CD137 expressed on CHO cells. Briefly, cultured cells were harvested, counted and cell viability was evaluated using the Trypan Blue exclusion method. Viable cells were then adjusted to 2×10⁶ cells per mL in PBS containing 2% BSA. 100 μL of this cell suspension were further aliquoted per well into a V-bottom 96-well plate. […] After incubation for 2 hours at 4° C., cells were centrifuged (3 min, 1000×g), washed with 250 μL/well BSA-containing FACS Stain Buffer, resuspended and incubated for an additional 1 hour at 4° C. with 100 μL/well fluorochrome-conjugated anti-IgG antibody for detection of the bisepecific antibody. Cells were then washed with 250 μL/well BSA-containing FACS Stain Buffer, resuspended in 100 μL/well FACS Stain Buffer, acquired and analyzed using a FACS machine. Binding of the bispecific antibodies to human OX40 or human CD137 expressing CHO cells were evaluated and the mean fluorescence intensity is plotted in histograms or dot plots.
Regarding B1, the “EC50 (read off the curve)” value is approximately 0.3 µg/mL.

As for B2, the “EC50 (read off the curve)” value was approximately 0.2 µg/mL.

As to B3, the “EC50 (read off the curve)” value is approximately 0.3 µg/mL.

The target of a further assay is T2, human OX40 expressed on CHO cells (human, UniProt P43489 29-277).
T2 construct: whole, on cells
T2 sequence (looked up): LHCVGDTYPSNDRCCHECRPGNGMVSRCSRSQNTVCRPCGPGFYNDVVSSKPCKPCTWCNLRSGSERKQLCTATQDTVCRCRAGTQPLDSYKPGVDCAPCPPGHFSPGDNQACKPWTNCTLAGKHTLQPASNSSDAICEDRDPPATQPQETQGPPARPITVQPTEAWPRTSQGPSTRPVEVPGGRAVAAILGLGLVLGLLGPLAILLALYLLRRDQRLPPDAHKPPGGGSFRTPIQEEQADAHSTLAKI
Put plainly: FACS on CHO cells expressing human OX40 (MFI). As to the method: as §1
With B4, the “EC50 (read off the curve)” value is approximately 0.9 µg/mL.

Consider B5, for which the binding result is listed as “binds”.

As to B1, the binding result is listed as “binds”.

Take B6: the binding result is “binds”.

With B2, the “EC50 (read off the curve)” value is approximately 0.4 µg/mL.

Take B3: the “EC50 (read off the curve)” value was approximately 0.4 µg/mL.

In the next assay the target is T1, human CD137 expressed on cells. Put plainly: FACS on CHO cells expressing human CD137 (MFI). This is another data set of the same source. The protocol: as §1
B4: the “EC50 (read off the curve)” value was approximately 0.2 µg/mL.

Turning to B5, the “EC50 (read off the curve)” value is approximately 0.2 µg/mL.

Consider B6, for which the “EC50 (read off the curve)” value is approximately 0.1 µg/mL.
